Data from US20190212291.

Tests used:
PB2 = system: T1, PB2
T1 sequence: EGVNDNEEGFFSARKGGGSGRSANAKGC

PEG-T39-Q = system: T2, PEG-T39-Q
T2 sequence: GGGSGRSANAKGKGC

Chain of MMP9 (chain, as listed by the source): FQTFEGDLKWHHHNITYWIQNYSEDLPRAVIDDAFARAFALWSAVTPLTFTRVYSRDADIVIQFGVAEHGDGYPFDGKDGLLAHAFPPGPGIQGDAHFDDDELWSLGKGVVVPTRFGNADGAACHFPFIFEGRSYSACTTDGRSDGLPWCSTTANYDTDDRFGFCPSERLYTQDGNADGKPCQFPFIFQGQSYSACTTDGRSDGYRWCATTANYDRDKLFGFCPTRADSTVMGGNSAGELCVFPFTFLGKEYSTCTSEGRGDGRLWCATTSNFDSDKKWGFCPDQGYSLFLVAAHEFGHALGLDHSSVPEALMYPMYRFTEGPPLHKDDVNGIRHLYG
Chain of HPN (chain, as listed by the source): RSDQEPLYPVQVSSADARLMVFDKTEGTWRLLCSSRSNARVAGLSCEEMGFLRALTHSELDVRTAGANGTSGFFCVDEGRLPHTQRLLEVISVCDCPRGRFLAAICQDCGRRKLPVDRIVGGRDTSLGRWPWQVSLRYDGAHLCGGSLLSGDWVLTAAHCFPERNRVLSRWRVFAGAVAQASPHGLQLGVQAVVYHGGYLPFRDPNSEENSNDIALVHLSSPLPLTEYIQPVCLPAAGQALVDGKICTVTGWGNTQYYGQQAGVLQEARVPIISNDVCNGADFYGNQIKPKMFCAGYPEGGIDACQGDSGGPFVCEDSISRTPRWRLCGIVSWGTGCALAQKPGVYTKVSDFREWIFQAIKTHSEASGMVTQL
Chain of MMP3 (chain, as listed by the source): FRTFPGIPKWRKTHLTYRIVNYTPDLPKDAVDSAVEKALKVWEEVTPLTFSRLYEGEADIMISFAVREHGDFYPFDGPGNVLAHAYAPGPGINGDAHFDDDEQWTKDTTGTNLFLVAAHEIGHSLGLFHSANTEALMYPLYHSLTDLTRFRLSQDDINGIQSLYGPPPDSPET
Chain of MMP10 (chain, as listed by the source): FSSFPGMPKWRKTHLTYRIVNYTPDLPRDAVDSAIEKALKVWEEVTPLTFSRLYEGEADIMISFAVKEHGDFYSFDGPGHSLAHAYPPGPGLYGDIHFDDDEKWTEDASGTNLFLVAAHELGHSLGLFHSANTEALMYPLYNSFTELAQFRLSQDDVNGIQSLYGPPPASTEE

HPN
Top hit (cleavage of PEG-coupled FRET substrate by recombinant proteases) (PEG-T58-Q): HPN | Top hit (cleavage of PEG-coupled FRET substrate by recombinant proteases) (PEG-T48-Q): HPN

KLK2
Second hit (cleavage of PEG-coupled FRET substrate by recombinant proteases) (PEG-T48-Q): KLK2 | Top hit (cleavage of PEG-coupled FRET substrate by recombinant proteases) (PEG-T38-Q): KLK2 | Top hit (cleavage of PEG-coupled FRET substrate by recombinant proteases) (PEG-T2-Q): KLK2

KLK3
Second hit (cleavage of PEG-coupled FRET substrate by recombinant proteases) (PEG-T2-Q): KLK3 | Second hit (cleavage of PEG-coupled FRET substrate by recombinant proteases) (PEG-T51-Q): KLK3

MMP3
Top hit (cleavage of PEG-coupled FRET substrate by recombinant proteases) (PEG-T43-Q): MMP3 | Second hit (cleavage of PEG-coupled FRET substrate by recombinant proteases) (PEG-T56-Q): MMP3

MMP9
Top hit (cleavage of PEG-coupled FRET substrate by recombinant proteases) (PEG-T3-Q): MMP9 | Top hit (cleavage of PEG-coupled FRET substrate by recombinant proteases) (PEG-T7-Q): MMP9 | Top hit (cleavage of PEG-coupled FRET substrate by recombinant proteases) (PEG-T1-Q): MMP9

MMP10
Top hit (cleavage of PEG-coupled FRET substrate by recombinant proteases) (PEG-T56-Q): MMP10

MMP13
substrate cleavage assay (SB14): MMP13 substrate, expressed by PC3 | Top hit (cleavage of PEG-coupled FRET substrate by recombinant proteases) (PEG-T24-Q): MMP13 | substrate cleavage (PEG-T24-Q): selectively cleaved by MMP13 and uPA | substrate cleavage in vitro (PEG-T24-Q): in vitro, these substrates are cleaved by proteases overexpressed in PC3 cells, MMP13 and uPA | Second hit (cleavage of PEG-coupled FRET substrate by recombinant proteases) (PEG-T54-Q): MMP13

uPA
substrate cleavage assay (PB2): uPA substrate, expressed by PC3 | Top hit (cleavage of PEG-coupled FRET substrate by recombinant proteases) (PEG-T39-Q): uPA | substrate cleavage (PEG-T39-Q): selectively cleaved by MMP13 and uPA | substrate cleavage in vitro (PEG-T39-Q): in vitro, these substrates are cleaved by proteases overexpressed in PC3 cells, MMP13 and uPA
